Laboratory results as given in US20040137000A1 (UNITED BIOMEDICAL, published 2004).

B1: chimeric B4 antibody (antibody, human IgG1, V domains shown)
VH: QVQLQQSGPELVKPGASVRMSCKASGYTFTDYVIHWVKQRTGQGLEWIGEIYPGSGSAYSNAKFKDKATLTADKSSNTAYMQLSSLTSEDSAVYFCARRGNGTGFAYWGQGTLVTVSA
VL: DIVLTQSPASLAVSLGQRATISCKAGQSVDYDGDSYMNWYQQKPGQPPKLLIYVASNLESGIPARFSGSGSGTDFTLNIHPVEEEDAATYYCQQSYKDPLTFGAGTKLELK
notes: Fully murine B4 variable regions joined to human IgG1 and human kappa constant regions; also called B4 chimeric antibody; chimeric antibody
B2: deimmunized B4 antibody DIVHv.4/VKv.3 produced by NS0 cells (antibody, human IgG1, V domains shown)
VH: QVQLVQSGAEVKKPGASVKVSCKASGYTFTDYVIHWVRQATGQGLEWIGEIYPGSGSAYSNSKFKDRVTITADKSTNTAYMELRSLRSDDTAVYFCARRGNGTGFAYWGQGTLVTVSS
VL: DIVLTQSPASLAVSPGQRATITCKAGQSVDYDGDSYMNWYQQKPGQPPKLLIYVASNLESGIPSRFSGSGSGTDFTLTINPVEENDTATYYCQQSYKDPLAFGPGTKVEIK
notes: Human IgG1 and human kappa constant regions; NS0 cells; also called DIVHv.4/V v.3

What was measured:
[1] = target: T1, recombinant soluble CD4 (rsCD4) (UniProt P01730 26-396, limits assumed); experiment: ELISA, rsCD4 coated at 0.25 µg/ml
T1 construct: Bought reagent coated on ELISA plates at 0.25 µg/ml; also called solid-phase rsCD4
Excerpt: Tween® 20 in PBS. Various dilutions of the chimeric antibody and the mouse antibody as the positive control were applied. Detection was with peroxidase conjugated goat anti-human IgG and sheep anti-mouse for chimeric and mouse antibodies respectively. Color was developed with OPD.
Both the chimeric and mouse antibodies provided increases in A₄₉₂ at all concentrations of antibodies when added to the solid-phase rsCD4. This assay confirmed that the cloned and sequenced heavy and light chain variable regions retained the correct recognition site.

[2] = target: T1, recombinant soluble CD4 (rsCD4); experiment: ELISA on rsCD4
[3] = target: CD4 on the surface of host T cells (HIV receptor complex involving CD4) (UniProt P01730 26-458, limits assumed); experiment: cell-based or functional assay

Row | Binder | fold reduction in A492 compared to the original mouse antibody [1] [fold] | fold reduction in binding compared to the chimeric antibody [2] [fold] | Antibody Conc (µg/ml) at 50% Inhibition; MT-2 microplaque neutralization, HIV-1 TH036 (PBL), clade E [3] [µg/mL] | Antibody Conc (µg/ml) at 50% Inhibition; MT-2 microplaque neutralization, HIV-1 UG029 (PBL), clade A [3] [µg/mL] | Antibody Conc (µg/ml) at 50% Inhibition; MT-2 microplaque neutralization, HIV-1 VL135 (PBL), clade B [3] [µg/mL]
1 | B1 | 10 |  |  |  | 
2 | B2 |  | 5 | 0.63 | 1.1 | 0.48
